Key:
[1] = biological target: T1, soluble, wild-type MICA (human, UniProt Q29983 24-299); experiment: SPR; 1:1 binding model
T1 chain: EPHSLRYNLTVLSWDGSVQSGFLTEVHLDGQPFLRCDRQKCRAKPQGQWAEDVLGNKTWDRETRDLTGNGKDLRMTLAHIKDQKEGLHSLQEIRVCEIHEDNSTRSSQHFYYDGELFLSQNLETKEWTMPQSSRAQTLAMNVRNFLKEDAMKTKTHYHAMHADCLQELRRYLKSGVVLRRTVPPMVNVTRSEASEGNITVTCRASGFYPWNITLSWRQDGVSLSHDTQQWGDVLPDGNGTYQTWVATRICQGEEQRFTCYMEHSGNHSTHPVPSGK

[2] = biological target: T1, soluble, wild-type MICA; experiment: SPR
[3] = biological target: T1, soluble, wild-type MICA; experiment: SPR; Two State Reaction model

Row | Kd [1] | Kd [2] | Kd [3] | Binder
1 | 4.6 nM | 4.6 nM | 9.72 nM | NKG2D^scd7 (heptamerized single-chain NKG2D dimer, Example 2) (receptor, FITC-conjugated for flow cytometry (two fluorophores per protomer)) GSRSAGAHAGWETPEGCEQVLTGKRLMQCLPNPEDVKMALEVYKLSLEIEQLELQRDSARQSTLDKELNQEVQIPLTESYCGPCPKNWICYKNNCYQFFDESKNWYESQASCMSQNASLLKVYSKEDQDLLKLVKSYHWMGLVHIPTNGSWQWEDGSILSPNLLTIIEMQKGDCALYASSFKGYIENCSTPNTYICMQRTVQIPLTESYCGPCPKNWICYKNNCYQFFDESKNWYESQASCMSQNASLLKVYSKEDQDLLKLVKSYHWMGLVHIPTNGSWQWEDGSILSPNLLTIIEMQKGDCALYASSFKGYIENCSTPNTYICMQRTV
2 |  | 13.8 nM |  | NKG2D^scd (single-chain dimer form of NKG2D) (receptor) NQEVQIPLTESYCGPCPKNWICYKNNCYQFFDESKNWYESQASCMSQNASLLKVYSKEDQDLLKLVKSYHWMGLVHIPTNGSWQWEDGSILSPNLLTIIEMQKGDCALYASSFKGYIENCSTPNTYICMQRTVQIPLTESYCGPCPKNWICYKNNCYQFFDESKNWYESQASCMSQNASLLKVYSKEDQDLLKLVKSYHWMGLVHIPTNGSWQWEDGSILSPNLLTIIEMQKGDCALYASSFKGYIENCSTPNTYICMQRTV
